Target: Fc-tagged extracellular domain of RPTPσ (wild type) (mouse) (UniProt B0V2N1)
Assay: ELISA: RPTPσ-Fc on protein G plates, biotinylated aggrecan (5 ug/ml) preincubated with protamine (0-5 ug/ml). The reference is binding without protamine.

In the case of “Biotinylated aggrecan (from UniProt P13608)”, the fold increase of binding in the presence of protamine is reported as 2 fold.

Source: patent US9896488B2
